Measured values reported in article PMC12045370.

Legend:
[1] = target: microtubules grown from purified bovine brain tubulin (bovine) (UniProt Q6B856); assay: optical trap rupture force assay; untreated kinetochores on anti-penta-His beads; dynamic microtubules grown from coverslip-anchored GMPCPP seeds; BRB80, 1 mM GTP, 23°C; force ramp 0.25 pN/s until detachment
[2] = target: microtubules grown from purified bovine brain tubulin (bovine) (UniProt Q6B856); assay: optical trap rupture force assay; benzonase-treated kinetochores on anti-penta-His beads; dynamic microtubules grown from coverslip-anchored GMPCPP seeds; BRB80, 1 mM GTP, 23°C; force ramp 0.25 pN/s until detachment

Chain of UniProt Q6B856 (Q6B856 whole entry, looked up): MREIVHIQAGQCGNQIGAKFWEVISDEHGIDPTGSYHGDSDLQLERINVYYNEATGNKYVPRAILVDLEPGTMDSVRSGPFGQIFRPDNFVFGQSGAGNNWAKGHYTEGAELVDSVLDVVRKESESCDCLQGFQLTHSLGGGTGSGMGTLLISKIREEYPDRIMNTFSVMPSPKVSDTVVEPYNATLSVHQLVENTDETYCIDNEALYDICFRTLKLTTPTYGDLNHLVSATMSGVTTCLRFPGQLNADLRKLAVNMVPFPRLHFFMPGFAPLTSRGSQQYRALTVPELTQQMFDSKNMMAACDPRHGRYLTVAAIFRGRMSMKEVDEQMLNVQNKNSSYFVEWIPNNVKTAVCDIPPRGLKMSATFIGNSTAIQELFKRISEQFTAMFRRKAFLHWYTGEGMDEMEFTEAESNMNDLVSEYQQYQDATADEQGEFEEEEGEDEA

Row | median rupture force [1] | median rupture force [2] | Substance
1 | 7.5 pN | 6.4 pN | K. marxianus kinetochore particles purified via Dsn1-6His-3M3DK (from UniProt A0ABX6F0Z3 1-547) (complex)
2 | 7.2 |  | S. cerevisiae kinetochore particles purified via Dsn1-6His-3M3DK (from UniProt P40568 1-576) (complex)
